Measurements: EP2182008A2
Values belong to the substance of their own block, whether it stands above or below them.

What was measured:
[1] = molecular target: T1, VCAM-1/IgG1 fusion protein (seven extracellular immunoglobulin-like domains) (UniProt P19320); test: ELISA, Iαd/IgG4 on immobilized CAM/IgG, detection with anti-IgG4 HP6023
T1 sequence (looked up): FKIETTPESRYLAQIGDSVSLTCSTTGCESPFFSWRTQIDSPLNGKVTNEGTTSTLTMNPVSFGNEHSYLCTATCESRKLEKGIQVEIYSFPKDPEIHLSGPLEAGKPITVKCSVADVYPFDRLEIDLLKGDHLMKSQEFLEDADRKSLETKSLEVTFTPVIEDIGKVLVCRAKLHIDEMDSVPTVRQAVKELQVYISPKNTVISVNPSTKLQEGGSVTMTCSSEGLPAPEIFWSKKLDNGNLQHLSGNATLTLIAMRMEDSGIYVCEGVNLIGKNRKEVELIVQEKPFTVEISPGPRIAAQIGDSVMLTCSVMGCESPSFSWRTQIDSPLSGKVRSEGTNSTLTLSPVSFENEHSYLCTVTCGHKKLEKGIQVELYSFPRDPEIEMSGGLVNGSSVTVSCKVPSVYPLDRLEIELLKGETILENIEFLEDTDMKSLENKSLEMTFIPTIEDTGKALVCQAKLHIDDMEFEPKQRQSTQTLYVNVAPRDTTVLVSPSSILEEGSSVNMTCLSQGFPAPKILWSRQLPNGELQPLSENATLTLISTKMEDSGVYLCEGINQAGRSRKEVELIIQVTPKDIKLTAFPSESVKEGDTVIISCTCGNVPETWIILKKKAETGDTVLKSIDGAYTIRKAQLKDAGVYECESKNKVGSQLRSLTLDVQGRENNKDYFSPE

[2] = molecular target: mutant two domain VCAM-1 fused to human immunoglobulin Fc (substitution at residue 40) (human) (UniProt P19320); test: adhesion of transfected CHO cells to immobilized CAM, crystal violet, A570
[3] = molecular target: recombinant VCAM-1 (commercial preparation, R & D Systems) (UniProt P19320); test: cell-based or functional assay
[4] = molecular target: LFA-1 leucine zipper fusion protein (UniProt P20701); test: ELISA, plate format; sentence unclear
[5] = molecular target: immobilized CD11b/CD18 (human) (UniProt P05107); test: ELISA, plate format; sentence unclear
[6] = molecular target: soluble ICAM-R/IgG1 fusion protein (UniProt P32942); test: ELISA, soluble integrin in supernatant on immobilized ICAM/Ig
Sequence of soluble ICAM-R/IgG1 fusion protein (P32942 30-485 limits assumed): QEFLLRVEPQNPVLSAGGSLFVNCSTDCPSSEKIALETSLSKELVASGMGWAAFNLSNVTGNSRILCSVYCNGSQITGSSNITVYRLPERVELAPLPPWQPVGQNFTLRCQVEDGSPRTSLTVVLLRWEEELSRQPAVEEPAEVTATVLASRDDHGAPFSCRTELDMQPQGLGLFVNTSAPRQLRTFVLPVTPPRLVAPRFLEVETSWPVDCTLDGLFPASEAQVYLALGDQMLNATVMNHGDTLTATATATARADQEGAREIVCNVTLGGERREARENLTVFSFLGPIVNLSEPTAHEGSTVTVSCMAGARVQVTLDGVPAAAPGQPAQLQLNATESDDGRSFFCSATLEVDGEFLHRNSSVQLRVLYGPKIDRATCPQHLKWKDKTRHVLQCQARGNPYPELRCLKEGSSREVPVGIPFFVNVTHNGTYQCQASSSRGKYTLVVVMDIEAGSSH

Sequence of human αd I domain/IgG4 fusion protein (P01861 other isoform, or with tags, fused parts or gaps): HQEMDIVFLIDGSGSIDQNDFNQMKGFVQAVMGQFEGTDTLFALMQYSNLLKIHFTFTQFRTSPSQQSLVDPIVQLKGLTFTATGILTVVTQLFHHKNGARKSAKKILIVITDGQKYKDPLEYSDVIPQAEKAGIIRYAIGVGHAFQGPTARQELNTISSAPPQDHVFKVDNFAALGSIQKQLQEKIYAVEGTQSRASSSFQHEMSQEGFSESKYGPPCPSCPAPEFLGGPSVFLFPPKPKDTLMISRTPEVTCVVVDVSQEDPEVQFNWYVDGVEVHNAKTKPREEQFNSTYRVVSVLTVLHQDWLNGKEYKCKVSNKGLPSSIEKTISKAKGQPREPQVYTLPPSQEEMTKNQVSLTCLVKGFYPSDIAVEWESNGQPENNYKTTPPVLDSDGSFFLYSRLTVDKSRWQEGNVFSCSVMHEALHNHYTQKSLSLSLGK

fold higher than background [1]: 7 to 10 fold
Substance: human αd I domain/IgG4 fusion protein (from UniProt P01861 99-327) (Fc fusion)

binding as percent of that with wild-type VCAM-1 [2]: 50%
Substance: human αd/CD18 expressed on transfected cells (from UniProt P05107 23-769) (receptor)

binding rate of IL-5 cultured eosinophils to immobilized VCAM-1 [3]: 28.8%
binding rate of IL-5 cultured eosinophils to immobilized VCAM-1 in the presence of a monoclonal antibody against α4 [3]: 18.1%
binding rate of IL-5 cultured eosinophils to immobilized VCAM-1 in the presence of an anti-CD18 monoclonal antibody [3]: 17.1%
Substance: native human αd/CD18 on human cells (from UniProt Q13349 18-1161; P05107 23-769) (receptor)

fold greater than background binding [4]: 5 fold
fold greater than background binding [5]: 15 fold
fold over control well containing no antibody [6]: 10 fold
Substance: soluble human αd/CD18 leucine zipper heterodimer (from UniProt P05107 23-700) (receptor)
